Experimental data: doi:10.1101/2022.03.13.484121

Tests used:
[1] = target: pro-meprin α C308A (human (from the printed accession)) (UniProt Q16819); assay: SEC-MALS
[2] = target: meprin α R372T, mature (activated) form (human (from the printed accession)) (UniProt Q16819); assay: MALDI-TOF mass spectrometry

stoichiometry N [1]	stoichiometry N [2]	Substance
2	–	pro-meprin α C308A (from UniProt Q16819 22-600) (enzyme)
–	2	meprin α R372T, mature (activated) form (from UniProt Q16819 22-600) (enzyme)
